From patent US9074002B2, “PTP1B inhibitors” (Cold Spring Harbor Laboratory, priority 2009, dated 2015)

T1: PTP1B under reducing condition (purified recombinant 37 kDa wild type PTP1B, with TCEP) (human, UniProt P18031 1-321)
T1 construct: Same protein as m1 but kept reduced (2 mM TCEP); also called reduced, active PTP1B
T1 sequence: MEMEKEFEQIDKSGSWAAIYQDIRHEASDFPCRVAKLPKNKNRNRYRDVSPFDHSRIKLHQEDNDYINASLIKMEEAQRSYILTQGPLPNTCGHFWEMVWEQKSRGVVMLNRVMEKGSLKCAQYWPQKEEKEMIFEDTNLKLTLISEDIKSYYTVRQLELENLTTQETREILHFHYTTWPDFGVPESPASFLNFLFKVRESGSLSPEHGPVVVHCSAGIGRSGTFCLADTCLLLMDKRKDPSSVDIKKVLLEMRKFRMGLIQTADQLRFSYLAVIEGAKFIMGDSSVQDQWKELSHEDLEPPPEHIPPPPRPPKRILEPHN

T2: PTP1B-OX (purified recombinant 37 kDa PTP1B, reversibly oxidized with H2O2) (human, UniProt P18031 1-321, catalytic Cys 215 reversibly oxidized by H2O2 (cyclic sulphenamide form))
T2 construct: also called PTP1B-SN
T2 sequence: T1 sequence

B1: scFv48 (scFv)
scFv: LTQPSSVSANPGETVKITCSEGGRSSYYGWYQQKAPGSAPVTVIYDSSSRPSDIPSRFSGSKSGSTGTLTITGVQAEDEAVYYCGSTDSSTSAAIFGAGTTLTVLGQSSRSSTVTLDESGGGLQTPGRALSLVCKASGFTFSSFNMGWVRQAPGKGLEYVASISSSGSYTAYGSAVKGRATISRDNGQSTVRLQLNNLRAEDTATYYCAKAAGSAYYYTAVTPAFAGSIDAWGHGTEVIVSSTSGQAGQHHHHHHGAYPYDVPDYAS
B2: scFv20 (scFv)
scFv: LTQPSSVSANLGGIVEITCSGSSGSYGWYQQKSPGSAPVTVIYYNDKRPSNIPSRFSGSGSGSTNTLTIAGVRAEDEAVYYCGNEDSSGAAFGAGTTLTVLGQSSRSSAVTLDESGGGLQTPGGGLSLVCKASGFTFSDYDMFWVRQAPSKGLEFVAAITSSGTGTKYGAAVKGRATISKDNGQRTVRLQLNSLGAEDTGTYYCARSDADSTTWSAGEIDAWGHGTEVIVSSTSGQAGQHHHHHHGAYPYDVPDYAS
B3: scFv21 (scFv)
scFv: LTQPSSVSANPGGTVKITCSGSSGSYYGWYQQKSPGSAPVTVIYDNDKRPSDVPSRFSGSKSGPTATLTITGVQAEDEAVYFCGSRDNSYVGIFGAGTTLTVLGQSSRSSAVTLDESGGGLQTPGGALSLVCKASGFTFSSYDMFWVRQAPGKGLEFVAQINSAGSYTNYGSAVKGRATISRDDGQSTVRLQLNNLRAEDTGIYFCAKSASGYYYSGSDAGDIDAWGHGTEVIVSSTSGQAGQHHHHHHGAYPYDVPDYAS

target: T1, PTP1B under reducing condition …; experiment: in vitro Ni-NTA pull-down of purified scFv with purified PTP1B in 2 mM TCEP, immunoblot
Protocol: (§1) In the in vitro binding assay, purified PTP was reversibly oxidized with […] followed by a quick buffer exchange to remove H_2O_2 (FIG. 8). Purified scFv was incubated in molar excess with PTP1B-OX or with PTP under reducing condition (with 2 mM TCEP) in binding buffer (20 mM HEPES, pH 7.4, 300 mM NaCl, 0.05% BSA, 0.05% Tween-20 and 10 mM imidazole) for 2 hours at 4° C. Ni-NTA agarose was added and incubated for one hour at 4° C. Protein complex bound to Ni-NTA agarose beads was pulled down and washed (three times, 5 minutes each, at 4° C.) with binding buffer containing 20 mM imidazole to reduce non-specific binding to the beads. The protein complex was eluted from the Ni-NTA agarose beads with 500 mM imidazole (in binding buffer, pH 7.4) for 15 minutes at 4° C. with gentle shaking. The complex was separated by SDS-PAGE and PTP1B was detected with anti-PTP1B antibody (FG6) and scFv was detected with anti-HA antibody [anti-HA (3F10)-HRP, Roche] by immunoblotting. Eight different scFvs (scFvs 20, 21, 24, 28, 45, 48, 57, and 105), expressed and purified from bacterial cultures were tested by this in vitro binding experiment.

Binding result, no binding:
B1, B2, B3

target: T2, PTP1B-OX (purified recombinant 37 kDa …); experiment: in vitro Ni-NTA pull-down of purified scFv with purified PTP1B-OX, immunoblot
Protocol: as §1

Binding result, no binding:
B1, B2, B3
